For four substances, EC50 of total ROS production over 3 h in Ubi::XA21 rice leaves results are on record in US20200048654A1.

The target in this test is rice XA21 receptor kinase (rice). In words: cell-based or functional assay.

Take RaxX21-sY (peptide): the EC50 of total ROS production over 3 h in Ubi::XA21 rice leaves was found to be 20 nM. Substance RaxX24-sY (peptide) showed an EC50 of total ROS production over 3 h in Ubi::XA21 rice leaves of 30 nM. The figure for RaxX39-sY (peptide) is 70 nM; for “RaxX60-sY (full-length sulfated recombinant RaxX-His from Xoo PXO99) (ligand)” it is 100 nM.
